The target in the experiment is mature type GnT-V. Briefly: cell-based or functional assay.

Turning to γ-secretase (enzyme), the GnT-V activity in culture solution, PS-1 ΔE9 cells against control cells was 4 fold; the ratio of the GnT-V activity in culture solution (extracellular) to that in the cell, PS-1 ΔE9 cells worked out at 3.5; the ratio of the GnT-V activity in culture solution (extracellular) to that in the cell, PS-1 ΔE9 cells against control cells is 3 fold; the ratio of the GnT-V activity in culture solution (extracellular) to that in the cell, control cells without high expression of variant presenilin-1 was found to be 1.2.

Source of the values: patent US20050148516A1.
